This note sets out measurements from patent US20250387484A1 (US Dept. of Health and Human Services, published 2025).

Residue numbers refer to the chain shown, from its start.

Assay [1] deals with T1, human CD25 on KIT-225 cells (human, UniProt P01589 22-272).
T1 construct: whole, on cells; also called hCD25; IL-2Rα
T1 sequence (looked up): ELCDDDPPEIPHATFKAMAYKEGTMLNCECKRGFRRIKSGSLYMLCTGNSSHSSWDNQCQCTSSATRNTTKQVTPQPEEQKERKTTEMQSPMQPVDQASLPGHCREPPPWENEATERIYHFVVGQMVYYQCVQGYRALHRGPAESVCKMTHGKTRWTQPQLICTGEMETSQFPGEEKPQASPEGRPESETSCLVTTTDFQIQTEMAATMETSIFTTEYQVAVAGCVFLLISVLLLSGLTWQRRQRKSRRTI
The experiment in a line: flow cytometry (FACS) on CD25-expressing KIT-225 cells, secondary antibody, MFI against antibody concentration. As for the experimental part: KIT-225 cells were washed once with FACS buffer, counted, and resuspended at a concentration of 1×10⁶/mL in FACS buffer. To 5 mL (5×10⁶ total) of cells, 25 μL of viable dye (Thermo Fisher, L34974, equivalent to 1:200 dilution) was added and mixed well. After incubation at 4° C. for 30 minutes, cells were washed twice with FACS buffer (200×g, 5 minutes each). Cells were resuspended in 5 mL FACS buffer and 100 μL was added per well, followed by addition of 100 μL diluted antibody. The solution was mixed by pipetting up and down and then incubated at 4° C. for 60 minutes, after which cells were washed twice with FACS buffer (200×g, 5 minutes each). Cells were resuspended in 100 μL FACS buffer. Fifty μL of secondary antibody was diluted in 5 mL FACS buffer (equivalent to 1:100 dilution), and 100 μL was added to each well and mixed by pipetting up and down. Following incubation at 4° C. for 30 minutes, cells were washed twice with FACS buffer (200×g, 5 minutes each), and resuspended in approximately 250 μL FACS buffer. FACS analysis was performed with Attune Flow cytometer using tube reading module.

Assay [2] concerns the target T2, cynomolgus CD25 (cynomolgus, UniProt H6WS54 22-213).
T2 construct: Analyte in the SPR assay; also called CD25 (sIL-2 Receptor α)
T2 sequence: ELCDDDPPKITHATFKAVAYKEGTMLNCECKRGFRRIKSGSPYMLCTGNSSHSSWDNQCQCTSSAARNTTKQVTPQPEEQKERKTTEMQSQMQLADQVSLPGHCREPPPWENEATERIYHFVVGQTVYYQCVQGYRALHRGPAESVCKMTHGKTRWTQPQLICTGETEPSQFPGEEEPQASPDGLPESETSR
The experiment in a line: SPR, Biacore 8K, antibody captured on Protein A chip, cynomolgus CD25 as analyte, 25 C. As for the experimental part:
Running buffer was prepared by diluting one volume of 10× buffer with 9 volumes of degassed, filtered MilliQ water. Regeneration buffer (10 mM glycine) was prepared by dissolving glycine in MilliQ water and adjusting the pH to approximately 1.5-1.7. The assay was performed at 25° C. using HBS-EP+ as the running buffer. Antibodies were injected as capture on the Series S Sensor Chip Protein A. Antigens were diluted to multiple concentrations and injected over the surface of flow cell 1 and 2 as association phase, followed by injection of running buffer as dissociation phase.
All data were processed using the BIACORE™ 8K Evaluation software version 3.0. Flow cell 1 and blank injection of buffer in each cycle were used as double reference for Response Units (RU) subtraction. […] VH2+VL4 is a parental antibody (before affinity maturation).
(Surface plasmon resonance follows binding to a sensor surface in real time, without labels.)

B1: antibody 14569 (antibody, human IgG4 S228P, kappa, V domains shown)
VH: EVQLVESGGGLVQPGGSLRLSCAASGYWFSSWGMSWVRQAPGKGLELVSTINGYGDTTYYPDSVKGRFTISRDNSKNTLYLQMNSLRAEDTAVYYCARDRDYSNSYYYAHDYWGQGTLVTVSS
VL: EIVLTQSPATLSLSPGERATLSCRASSYVSFMHWLQQKPGQAPRPWIYATMNLASGVPARFSGSGSGTDYTLTISSLEPEDFAVYYCQQWSSNPPAFGGGTKVEIKR
In general, EC50 (read off the curve) refers to the concentration at which the effect is half-maximal. Read a low EC50 (read off the curve) as a more potent agent. A word on the Kd: it is the concentration at which binding is half-saturated. As usually defined, the koff is the first-order rate constant of dissociation. A low value points to a long-lived complex. A word on the kon: it is the rate constant with which the complex forms. Read a high kon as faster complex formation. Take B1: the “EC50 (read off the curve)” value in assay [1] was around 0.5 mg/L. In assay [2], this molecule had a Kd of 0.0185 µM, a koff of 0.000714 s⁻¹ and a kon of 38500 M⁻¹ s⁻¹.

B2: antibody 14564 (antibody, human IgG4 S228P, kappa, V domains shown)
VH: B1 VH with Y27F, W28T
VL: B1 VL with M51A
For the molecule B2, the “EC50 (read off the curve)” value in assay [1] was around 0.6 mg/L. In assay [2], this molecule came in with a Kd of 0.0174 µM, a koff of 0.000744 s⁻¹ and a kon of 42600 M⁻¹ s⁻¹.

B3: antibody 14572 (antibody, human IgG4 S228P, kappa, V domains shown)
VH: B1 VH with W32Y, S103T
VL: B1 VL
Regarding B3, in assay [1], the “EC50 (read off the curve)” value was around 0.4 mg/L. In assay [2], this molecule had a Kd of 0.0196 µM, a koff of 0.000679 s⁻¹ and a kon of 34700 M⁻¹ s⁻¹.
